Assay results reported in patent US20260152573A1.

What was measured:
[1] = target: FcRn-L322A/L323A expressed in HEK293 cells (human) (UniProt P55899); assay: FcRn occupancy, FACS, HEK293-FcRn-mut cells, without albumin
[2] = target: neonatal Fc receptor (FcRn), endogenous in U937 cells (human) (UniProt P55899); assay: cell-based FcRn occupancy assay on U937 cells, flow cytometry; free FcRn stained with anti-FcRn-Fab AF647
[3] = target: FcRn (cells of the occupancy assay not stated) (UniProt P55899); assay: FcRn occupancy assay, cells not given
[4] = target: FcRn-L322A/L323A expressed in HEK293 cells (human) (UniProt P55899); assay: FcRn occupancy, FACS, HEK293-FcRn-mut cells, with albumin
[5] = target: neonatal Fc receptor (FcRn), endogenous in U937 cells (human) (UniProt P55899); assay: FcRn occupancy, FACS, U937 cells, with albumin

neonatal Fc receptor (FcRn), endogenous in U937 cells (human), sequence (P55899 24-365 limits assumed, chain 1 of 2): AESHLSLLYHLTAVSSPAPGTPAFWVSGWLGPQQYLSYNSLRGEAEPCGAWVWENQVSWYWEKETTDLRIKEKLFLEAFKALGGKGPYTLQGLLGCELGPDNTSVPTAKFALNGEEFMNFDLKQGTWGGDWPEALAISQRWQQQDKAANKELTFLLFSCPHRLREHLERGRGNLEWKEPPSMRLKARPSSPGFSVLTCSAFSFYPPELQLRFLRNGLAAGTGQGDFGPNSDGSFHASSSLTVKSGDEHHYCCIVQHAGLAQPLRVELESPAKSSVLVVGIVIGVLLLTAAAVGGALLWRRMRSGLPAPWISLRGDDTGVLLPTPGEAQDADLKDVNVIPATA
neonatal Fc receptor (FcRn), endogenous in U937 cells (human), sequence (chain, as listed by the source limits assumed, chain 2 of 2): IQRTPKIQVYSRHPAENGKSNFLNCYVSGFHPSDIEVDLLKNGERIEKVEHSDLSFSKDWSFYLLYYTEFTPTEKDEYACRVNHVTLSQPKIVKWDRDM

Q: Which results are given for efgartigimod?
A: IC50 [1]: 6.8 nM; IC50 (read off the curve) [2]: 0.3 nM; IC50 [3]: 6 nM; % max occupancy [4]: 57.7%; IC50 [4]: 16.1 nM; % max occupancy [5]: 56.8%; IC50 [5]: 4.8 nM
